Data published in patent publication US7988958B2, “Enterococcus and Streptococcus strains and bacteriocins” (The United States of America as represented by the …, priority 2005, dated 2011).

What was measured:
Morganella morganii = assay: MIC by spot test; assay type: cell-based
S. choleraesuis 434/4 = assay: MIC by spot test; assay type: cell-based
Y. enterolitica 04 = assay: MIC by spot test; assay type: cell-based, Y. enterocolitica
C. jejuni NCTC 11168 [1] = assay: Influence of enzymes on bacteriocin activity (spot test); assay type: physicochemical, Campylobacter jejuni
S. typhimurium 383/60 = assay: MIC by spot test; assay type: cell-based
S. enteritidis 204 [2] = assay: Spot test; assay type: cell-based; conditions: for Inhibiting activity in Spot Test: crude antimicrobial preparation (CAP); for Inhibiting Activity, Spot Test: purified bacteriocin
E. coli O157:H7 OD-3 = assay: MIC by spot test; assay type: cell-based
C. jejuni NCTC 11168 [3] = assay: IEF gel tested for growth inhibition of test strain; assay type: cell-based, Campylobacter jejuni; conditions: for Inhibiting Activity measured by IEF: CAP, active band, C. jejuni NCTC 11168; for Inhibiting Activity IEF: purified bacteriocin, C. jejuni
Procedure: CAPs and bacteriocins were electrophoresed in about 15% […] gel weight, about 1% SDS (9×12 cm) in Tri-glycine buffer. After electrophoresis at about 100 mA for approximately 4 hours, gels were fixed with a solution containing approximately 15% ethanol and approximately 1% acetic acid. The gels were then washed with distilled water for approximately 4 hours. To determine molecular weights of protein fractions, the gel was stained with a solution containing approximately 0.21% Coomassi Blue G-250, about 40% ethanol, and about 7% acetic acid. Washed gels were tested against three target bacteria, C. jejuni NCTC 11168, E. coli 0157:H7 904, and S. enteritidis 204 by the method of Bhunia et al. (Journal of Industrial Microbiology, Volume 2, 319-322, 1987; herein incorporated by reference). The gels were placed in Petri dishes, covered with 5% blood-semi-solid Campylobacter agar (about 0.75%) or semi-solid MPA, and seeded with cells of the test strains. Plates containing C. jejuni were incubated at about 42° C. for approximately 48 hours under microaerobic conditions, E. coli 0157:H7 and S. enteriditidis at about 37° C. for approximately 24 hours. Assessment was based on visualization of zones of the inhibited growth of the test strains in the presence of bacteriocins.
Specimens of bacteriocins were placed on IEF gels (pH approximately 4.4-10.0) (Novex, San Diego, Calif.). The gels were run at about 100V for about 1 hour, 200V for about 2 hour, and 500V for about 30 minutes in XCM II™ Mini-Cell (Novex). Gels were washed with distilled water for about 4 hours without fixation followed by staining with Coomassie Blue G-250 to determine isoelectric points (pI) of the bacteriocins and their ability to inhibit the growth of the test strains as presented in FIGS. 1 and 2 and in Table 2.

Y. enterocolitica 03 = assay: MIC by spot test; assay type: cell-based
E. coli O157:H7 Y-63 = assay: MIC by spot test; assay type: cell-based
Citrobacter freundi = assay: MIC by spot test; assay type: cell-based
L. monocytogenes 9-72 = assay: MIC by spot test; assay type: cell-based
S. enteritidis 237 = assay: MIC by spot test; assay type: cell-based
[4] = system: Staphylococcus epidermidis; assay: MIC by spot test; assay type: cell-based
S. enteritidis 204 [5] = assay: MIC by spot test; assay type: cell-based
C. jejuni NCTC 11168 [6] = assay: Thermostability and effect of pH on bacteriocin activity (spot test); assay type: physicochemical, Campylobacter jejuni; conditions: for Antimicrobial activity after treatment: heating to about 90° C.
[7] = system: Pseudomonas aeruginosa 25583; assay: MIC by spot test; assay type: cell-based
S. typhimurium 320 = assay: MIC by spot test; assay type: cell-based
C. jejuni L4 = assay: MIC by spot test; assay type: cell-based
E. coli HB101 = assay: MIC by spot test; assay type: cell-based
Sh. dysenteriae = assay: MIC by spot test; assay type: cell-based
Klebsiella pneumoniae = assay: MIC by spot test; assay type: cell-based
S. choleraesuis 370 = assay: MIC by spot test; assay type: cell-based
C. jejuni NCTC 11168 [8] = assay: Spot test; assay type: cell-based, Campylobacter jejuni; conditions: for Inhibiting activity in Spot Test: crude antimicrobial preparation (CAP), C. jejuni NCTC 11168; for Inhibiting Activity, Spot Test: purified bacteriocin, C. jejuni
Pseudomonas aeruginosa = assay: MIC of purified bacteriocins and antibiotic by Spot Test; assay type: cell-based; conditions: P. aeruginosa; 24 hours at 37° C., aerobic
Procedure: (§1) The minimal inhibiting concentrations (MICs) of bacteriocins 760 and 50-52 and Methicillin were determined by Spot Test. Various concentrations of purified bacteriocins (μg/ml) in a volume of 10 μl was added to cultures of Staphylococcus aureus, Staphylococcus epidermidis, Pseudomonas aeruginosa, and Helicobacter pylori. The cultures were incubated for about 24 hours at about 37° C. under aerobic conditions for all but Helicobacter pylori which was incubated under microaerobic conditions.

Helicobacter pylori = assay: as above; assay type: cell-based; conditions: H. pylori; 24 hours at 37° C., microaerobic
Procedure: as §1

Staphylococcus aureus = assay: as above; assay type: cell-based; conditions: S. aureus; 24 hours at 37° C., aerobic
Procedure: as §1

[9] = system: Staphylococcus epidermidis; assay: as above; assay type: cell-based; conditions: S. epidermidis; 24 hours at 37° C., aerobic
Procedure: as §1

Y. pseudotuberculosis = assay type: cell-based
Y. enterolitica 09 = assay: MIC by spot test; assay type: cell-based, Y. enterocolitica
E. coli O157:H7 lab. 39 = assay: MIC by spot test; assay type: cell-based
Proteus mirabilis = assay: MIC by spot test; assay type: cell-based

## Bacteriocin 50-52: bacteriocin produced by Enterococcus durans/faecium/hirae NRRL B-30746 (strain 50-52); amino acid sequence SEQ ID NO 1 (TTKNYGNGVCNSVNWCQCGNVWASCNLATGCAAWLCKLA; listed as Enterococcus faecium)
Morganella morganii
  MICs: 3.2 µg/mL
S. choleraesuis 434/4
  MICs: 0.1 µg/mL
Y. enterolitica 04
  MICs: 0.1 µg/mL
C. jejuni NCTC 11168 [1]; treated with beta-chymotrypsin
  Antimicrobial activity after treatment: lost their antimicrobial activity
C. jejuni NCTC 11168 [1]; treated with lipase
  Antimicrobial activity after treatment: retained it
C. jejuni NCTC 11168 [1]; treated with lysozyme
  Antimicrobial activity after treatment: retained it
C. jejuni NCTC 11168 [1]; treated with papain
  Antimicrobial activity after treatment: lost their antimicrobial activity
C. jejuni NCTC 11168 [1]; treated with proteinase K
  Antimicrobial activity after treatment: lost their antimicrobial activity
S. typhimurium 383/60
  MICs: 0.1 µg/mL
S. enteritidis 204 [2]
  Inhibiting activity in Spot Test: 12,800 AU/ml
  Inhibiting Activity, Spot Test: 12,800 AU/ml
E. coli O157:H7 OD-3
  MICs: 0.1 µg/mL
C. jejuni NCTC 11168 [3]
  Inhibiting Activity measured by IEF: band 1
  Inhibiting Activity IEF: +Band 1
Y. enterocolitica 03; Y. enterolitica 03
  MICs: 0.1 µg/mL
E. coli O157:H7 Y-63
  MICs: 0.1 µg/mL
Citrobacter freundi
  MICs: 0.1 µg/mL
L. monocytogenes 9-72
  MICs: 0.2 µg/mL
S. enteritidis 237
  MICs: 0.1 µg/mL
[4]; Staphylococcus epidermis
  MICs: 3.2 µg/mL
S. enteritidis 204 [5]
  MICs: 0.2 µg/mL
C. jejuni NCTC 11168 [6]; about pH 10
  Stability at different values of pH: became inactive
C. jejuni NCTC 11168 [6]
  Antimicrobial activity after treatment: retained it
C. jejuni NCTC 11168 [6]; pH about 3.0 to about 9.0
  Stability at different values of pH: stable
[7]
  MICs: 3.2 µg/mL
S. typhimurium 320
  MICs: 0.1 µg/mL
C. jejuni L4; C. jejuni L-4
  MICs: 0.2 µg/mL
E. coli HB101
  MICs: 0.1 µg/mL
Sh. dysenteriae
  MICs: 0.4 µg/mL
Klebsiella pneumoniae
  MICs: 0.2 µg/mL
S. choleraesuis 370
  MICs: 0.1 µg/mL
C. jejuni NCTC 11168 [8]
  Inhibiting activity in Spot Test: 12,800 AU/ml
  Inhibiting Activity, Spot Test: 12,800 AU/ml
Pseudomonas aeruginosa
  MIC of purified Bacteriocins and Antibiotic: 0.8 µg/mL
Helicobacter pylori
  MIC of purified Bacteriocins and Antibiotic: 0.8 µg/mL
Staphylococcus aureus
  MIC of purified Bacteriocins and Antibiotic: 0.1 µg/mL
[9]
  MIC of purified Bacteriocins and Antibiotic: 0.4 µg/mL
Y. pseudotuberculosis; Y. pseudotuberculosis
  MICs: 0.4 µg/mL
Y. enterolitica 09
  MICs: 0.4 µg/mL
E. coli O157:H7 lab. 39
  MICs: 0.1 µg/mL
Proteus mirabilis
  MICs: 1.6 µg/mL

B1: Bacteriocin 760: bacteriocin produced by Enterococcus durans/faecium/hirae NRRL B-30745 (strain 760); amino acid sequence SEQ ID NO 2 (protein, listed as Streptococcus cricetus)
chain: NRWYCNSAAGGVGGAAVCGLAGYVGEAKENIAGEVRKGWGMAGGFTHNKACKSFPGSGWASG
Morganella morganii
  MIC: 3200 µg/mL
S. choleraesuis 434/4
  MIC: 400 µg/mL
Y. enterolitica 04
  MIC: 100 µg/mL
C. jejuni NCTC 11168 [1]; treated with beta-chymotrypsin
  Antimicrobial activity after treatment: lost their antimicrobial activity
C. jejuni NCTC 11168 [1]; treated with lipase
  Antimicrobial activity after treatment: retained it
C. jejuni NCTC 11168 [1]; treated with lysozyme
  Antimicrobial activity after treatment: retained it
C. jejuni NCTC 11168 [1]; treated with papain
  Antimicrobial activity after treatment: lost their antimicrobial activity
C. jejuni NCTC 11168 [1]; treated with proteinase K
  Antimicrobial activity after treatment: lost their antimicrobial activity
S. typhimurium 383/60
  MIC: 400 µg/mL
S. enteritidis 204 [2]
  Inhibiting activity in Spot Test: 12,800 AU/ml
  Inhibiting Activity, Spot Test: 12,800 AU/ml
E. coli O157:H7 OD-3
  MIC: 1600 µg/mL
C. jejuni NCTC 11168 [3]
  Inhibiting Activity measured by IEF: band 1
  Inhibiting Activity IEF: +Band 1
Y. enterocolitica 03; Y. enterocolitica 03
  MIC: 100 µg/mL
E. coli O157:H7 Y-63
  MIC: 1600 µg/mL
Citrobacter freundi
  MIC: 1600 µg/mL
L. monocytogenes 9-72
  MIC: 100 µg/mL
S. enteritidis 237
  MIC: 200 µg/mL
[4]; Staphylococcus epidermidis
  MIC: 1600 µg/mL
S. enteritidis 204 [5]
  MIC: 200 µg/mL
C. jejuni NCTC 11168 [6]; about pH 10
  Stability at different values of pH: became inactive
C. jejuni NCTC 11168 [6]
  Antimicrobial activity after treatment: retained it
C. jejuni NCTC 11168 [6]; pH about 3.0 to about 9.0
  Stability at different values of pH: stable
[7]
  MIC: 400 µg/mL
S. typhimurium 320
  MIC: 200 µg/mL
C. jejuni L4; C. jejuni L4
  MIC: 100 µg/mL
E. coli HB101
  MIC: 100 µg/mL
Sh. dysenteriae
  MIC: 100 µg/mL
Klebsiella pneumoniae
  MIC: 3200 µg/mL
S. choleraesuis 370
  MIC: 400 µg/mL
C. jejuni NCTC 11168 [8]
  Inhibiting activity in Spot Test: 51,200 AU/ml
  Inhibiting Activity, Spot Test: 51,200 AU/ml
Pseudomonas aeruginosa
  MIC of purified Bacteriocins and Antibiotic: 0.4 µg/mL
Helicobacter pylori
  MIC of purified Bacteriocins and Antibiotic: 0.2 µg/mL
Staphylococcus aureus
  MIC of purified Bacteriocins and Antibiotic: 1.6 µg/mL
[9]
  MIC of purified Bacteriocins and Antibiotic: 1.6 µg/mL
Y. pseudotuberculosis
  MIC: 3200 µg/mL
Y. enterolitica 09
  MIC: 100 µg/mL
E. coli O157:H7 lab. 39
  MIC: 1600 µg/mL
Proteus mirabilis
  MIC: 3200 µg/mL
